B1: BBSome complex member BBS1 (Homo sapiens), Q8NFJ9 (parent)
chain: MAAASSSDSDACGAESNEANSKWLDAHYDPMANIHTFSACLALADLHGDGEYKLVVGDLGPGGQQPRLKVLKGPLVMTESPLPALPAAAATFLMEQHEPRTPALALASGPCVYVYKNLRPYFKFSLPQLPPNPLEQDLWNQAKEDRIDPLTLKEMLESIRETAEEPLSIQSLRFLQLELSEMEAFVNQHKSNSIKRQTVITTMTTLKKNLADEDAVSCLVLGTENKELLVLDPEAFTILAKMSLPSVPVFLEVSGQFDVEFRLAAACRNGNIYILRRDSKHPKYCIELSAQPVGLIRVHKVLVVGSTQDSLHGFTHKGKKLWTVQMPAAILTMNLLEQHSRGLQAVMAGLANGEVRIYRDKALLNVIHTPDAVTSLCFGRYGREDNTLIMTTRGGGLIIKILKRTAVFVEGGSEVGPPPAQAMKLNVPRKTRLYVDQTLREREAGTAMHRAFQTDLYLLRLRAARAYLQALESSLSPLSTTAREPLKLHAVVQGLGPTFKLTLHLQNTSTTRPVLGLLVCFLYNEALYSLPRAFFKVPLLVPGLNYPLETFVESLSNKGISDIIKVLVLREGQSAPLLSAHVNMPGSEGLAAA
partner: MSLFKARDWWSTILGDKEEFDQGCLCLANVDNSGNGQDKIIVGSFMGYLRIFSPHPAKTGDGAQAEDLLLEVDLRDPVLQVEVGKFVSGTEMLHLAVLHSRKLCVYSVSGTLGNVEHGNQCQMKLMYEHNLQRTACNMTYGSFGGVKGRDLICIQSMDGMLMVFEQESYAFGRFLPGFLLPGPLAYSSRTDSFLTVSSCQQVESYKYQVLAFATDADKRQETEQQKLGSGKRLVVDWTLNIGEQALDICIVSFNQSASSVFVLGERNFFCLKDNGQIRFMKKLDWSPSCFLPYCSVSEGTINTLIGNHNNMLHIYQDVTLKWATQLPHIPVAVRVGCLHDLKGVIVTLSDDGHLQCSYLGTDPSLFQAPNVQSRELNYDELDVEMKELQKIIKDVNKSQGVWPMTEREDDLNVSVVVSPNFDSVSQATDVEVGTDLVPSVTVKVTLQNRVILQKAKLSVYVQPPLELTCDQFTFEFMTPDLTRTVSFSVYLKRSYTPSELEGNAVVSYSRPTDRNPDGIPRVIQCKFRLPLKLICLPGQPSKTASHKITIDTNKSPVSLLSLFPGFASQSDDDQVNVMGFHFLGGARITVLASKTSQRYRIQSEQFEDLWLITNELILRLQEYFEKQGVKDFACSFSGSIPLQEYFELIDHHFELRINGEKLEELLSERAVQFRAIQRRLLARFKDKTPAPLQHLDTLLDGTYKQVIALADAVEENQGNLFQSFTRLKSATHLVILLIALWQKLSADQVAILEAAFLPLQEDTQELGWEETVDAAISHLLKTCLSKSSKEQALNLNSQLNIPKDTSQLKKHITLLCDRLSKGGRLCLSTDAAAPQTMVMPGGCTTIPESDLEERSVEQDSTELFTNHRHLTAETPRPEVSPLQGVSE

Variants of: B1
Conditions: with pthb1_human BBS9, Q3SYG4

| Variant | effect of a mutation on the interaction |
| --- | --- |
| T502K | with no effect |
| T502A | with no effect |
| S479K | with no effect |
| S479A | with no effect |
| S473K | with no effect |
| R483A | with no effect |
| P485E | with no effect |
| P485K | with no effect |
| E484K | with no effect |
| G496E | with no effect |
| G496A | with no effect |
| L486E | disrupting interaction strength |
| L486A | with no effect |
| E472K | with no effect |
| V491K | with no effect |
| V491A | with no effect |
| K487A | with no effect |
| L478E | with no effect |
| L478A | with no effect |
| L495K | with no effect |
| L495E | with no effect |
| V492K | with no effect |
| V492A | with no effect |
| Q493E | with no effect |
| Q493K | with no effect |
| Q493A | with no effect |
| T480K | with no effect |
| T480E | with no effect |

| Variant | effect of a mutation on the interaction |
| --- | --- |
| S476A | with no effect |
| T481K | with no effect |
| T481E | with no effect |
| T481A | with no effect |
| L488A | with no effect |
| A482K | with no effect |
| A482E | with no effect |
| S474A | with no effect |
| L475E | with no effect |
| L475A | with no effect |
| L475K | with no effect |
| L503E | disrupting interaction strength |
| L503A | with no effect |
| L503K | disrupting interaction strength |
| A490E | with no effect |
| P477K | with no effect |
| P477E | with no effect |
| H489K | with no effect |
| H489A | with no effect |
| H489E | with no effect |
| T498A | with no effect |
| T498K | with no effect |
| F499A | with no effect |
| P497K | with no effect |
| P497A | with no effect |
| P497E | with no effect |
| K500E | with no effect |

Next, values leading:

| effect of a mutation on the interaction | Variant |
| --- | --- |
| with no effect | T502E |
| with no effect | G494K |
| with no effect | G494E |
| with no effect | G494A |
| with no effect | S479E |
| with no effect | S473A |
| with no effect | S473E |
| with no effect | R483E |
| with no effect | R483K |
| with no effect | P485A |
| with no effect | E484A |
| with no effect | G496K |
| disrupting interaction strength | L486K |
| with no effect | V491E |
| with no effect | K487E |
| with no effect | L478K |
| with no effect | L495A |
| disrupting interaction strength | L501E |

| effect of a mutation on the interaction | Variant |
| --- | --- |
| disrupting interaction strength | L501K |
| disrupting interaction strength | L501A |
| with no effect | V492E |
| with no effect | T480A |
| with no effect | H504A |
| with no effect | S476E |
| with no effect | S476K |
| with no effect | L488E |
| with no effect | L488K |
| with no effect | S474E |
| with no effect | S474K |
| with no effect | A490K |
| with no effect | P477A |
| with no effect | T498E |
| disrupting interaction strength | F499E |
| with no effect | F499K |
| with no effect | K500A |

Source: IntAct's records for PubMed 29039417
